# T1: LexA alone (bait control) (UniProt P0A7C2 1-202)
# T1 construct: also called pLex9
# T1 sequence: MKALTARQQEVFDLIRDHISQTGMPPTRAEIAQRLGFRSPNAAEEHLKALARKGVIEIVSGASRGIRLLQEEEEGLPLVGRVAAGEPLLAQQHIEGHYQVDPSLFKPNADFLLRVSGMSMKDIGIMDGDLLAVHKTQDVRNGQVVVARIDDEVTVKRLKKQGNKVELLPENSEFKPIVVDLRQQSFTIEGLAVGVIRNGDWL
# T2: Rev protein of HIV-1 (HIV-1, UniProt P04618 1-116)
# T2 construct: also called pSG-Rev
# T2 sequence: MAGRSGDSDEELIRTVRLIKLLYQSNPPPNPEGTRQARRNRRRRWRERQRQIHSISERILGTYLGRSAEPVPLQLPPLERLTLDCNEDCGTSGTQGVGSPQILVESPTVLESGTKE
# T3: GST-Rev fusion protein produced in bacteria (HIV-1, UniProt P04618 1-116)
# T3 construct: also called GXT-Rev
# T3 sequence: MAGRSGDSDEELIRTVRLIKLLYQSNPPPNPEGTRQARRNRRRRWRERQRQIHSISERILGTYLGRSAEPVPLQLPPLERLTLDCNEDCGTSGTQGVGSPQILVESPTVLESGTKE
# Columns and labels:
# [1] = target: T1, LexA alone (bait control); experiment: two-hybrid test in HeLa cells, SEAP reporter
# Rev protein of HIV-1 = target: T2, Rev protein of HIV-1; experiment: gel retardation of the Rev-RRE RNA complex
# [2] = target: T3, GST-Rev fusion protein produced in …; experiment: GST-Rev on glutathione-agarose column, elution with glutathione, immunoblot against FLAG
# [3] = target: T1, LexA alone (bait control); experiment: yeast two-hybrid, beta-galactosidase filter test; W = white after 6 h
binder,measurement,setting,value
"ITRRIEMPGRDIPGVDGSILRGCWDPGRKKRRQRRRG (designed binder) [Mammalian prey FLAG-NLS-Vp16 activation domain-heptapeptide-Tat PTD, pSG-FNV-P-T9]",binding result,[1],no binding
"SHPT-8 produced in bacteria (N-terminal FLAG epitope), purified (designed binder, also called pFLAG-SUMO-1-P 8) MSDQEAKPSTEDLGDKKEGEYIKLKVIGQDSSEIHFKVKMTTHLKKLKESYCQRQGVPMNSLRFLFEGQRIADNHTPKELGMEEEDVIEVYQEQTARPPNPKKEIELGGGGSFTMRGVDPGRKKRRQRRRG",binding result,Rev protein of HIV-1,no binding
same,binding result,[2],no binding
"GGGGSITRRIEMPGRDIPGVDGSILRGCWDPGRKKRRQRRRG (designed binder) [Yeast prey GAL4 activation domain-heptapeptide-Tat PTD, clone 9 (LexTat screening)]",binding result,[3],no binding
